# T1: human LAG-3 expressed on cells (human, UniProt P18627 23-525)
# T1 sequence: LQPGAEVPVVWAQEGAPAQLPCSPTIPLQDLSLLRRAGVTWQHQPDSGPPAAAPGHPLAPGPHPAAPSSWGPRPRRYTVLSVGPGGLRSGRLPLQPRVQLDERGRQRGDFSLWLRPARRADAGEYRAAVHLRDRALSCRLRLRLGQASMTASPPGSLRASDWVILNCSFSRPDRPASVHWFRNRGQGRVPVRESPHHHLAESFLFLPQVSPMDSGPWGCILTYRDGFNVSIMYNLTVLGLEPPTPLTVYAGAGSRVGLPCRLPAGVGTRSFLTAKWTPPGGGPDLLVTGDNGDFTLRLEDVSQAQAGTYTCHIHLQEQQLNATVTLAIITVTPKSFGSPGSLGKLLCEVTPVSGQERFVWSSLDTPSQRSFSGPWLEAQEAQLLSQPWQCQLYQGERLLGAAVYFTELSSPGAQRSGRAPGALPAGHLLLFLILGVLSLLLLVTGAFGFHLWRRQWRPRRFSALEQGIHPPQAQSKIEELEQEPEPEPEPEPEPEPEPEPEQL
# T2: recombinant human LAG-3-Fc (human, UniProt P18627 23-450)
# T2 construct: also called human LAG-3 (R&D Systems cat no. 2319-L3); LAG3 antigen
# T2 sequence: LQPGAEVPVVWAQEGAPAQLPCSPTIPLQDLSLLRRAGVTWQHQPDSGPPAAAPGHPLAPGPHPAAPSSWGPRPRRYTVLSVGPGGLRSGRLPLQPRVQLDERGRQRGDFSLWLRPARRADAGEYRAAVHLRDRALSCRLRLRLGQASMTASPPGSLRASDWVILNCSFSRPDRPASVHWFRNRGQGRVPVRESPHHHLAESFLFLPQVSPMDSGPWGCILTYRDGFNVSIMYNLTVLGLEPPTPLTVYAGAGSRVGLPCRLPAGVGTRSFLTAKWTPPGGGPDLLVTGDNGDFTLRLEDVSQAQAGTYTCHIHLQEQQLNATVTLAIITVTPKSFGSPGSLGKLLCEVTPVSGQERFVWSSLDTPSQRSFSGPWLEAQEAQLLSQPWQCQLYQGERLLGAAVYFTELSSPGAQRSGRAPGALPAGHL
# B1: VH1.1-6GS-VH1.1-9GS-VH2.63-His6 (bispecific antibody)
# chain: EVQLVESGGGVVRPGGSLRLSCSASGFTFDDYGMSWVRQAPGKGLEWVSGIHWNGGNSGYADSVKGRFTISRDNAKNSLYLQMNSLRAEDTALYYCARIPREDCSSASCYTDAIDFWGPGTMVTVSSGGGGSGGGGSGGGGSGGGGSGGGGSGGGGSEVQLVESGGGVVRPGGSLRLSCSASGFTFDDYGMSWVRQAPGKGLEWVSGIHWNGGNSGYADSVKGRFTISRDNAKNSLYLQMNSLRAEDTALYYCARIPREDCSSASCYTDAIDFWGPGTMVTVSSGGGGSGGGGSGGGGSGGGGSGGGGSGGGGSGGGGSGGGGSGGGGSEVQLVESGGGLVKPGGSLRLSCAASGFTFSDSSMTWMRQAPGKGLEWVSYISSGGGVKFYTDSVKGRFTISRDNAKNSLYLQMNSLRADDTAVYYCAREAPLRLGESPHDAFDISGQGTMVTVSSAAAHHHHHH
# notes: Single-chain fusion of two anti-LAG-3 VH 1.1 and one anti-PD-1 VH 2.63; The entry includes AAA-His6; also called 1.1-6GS-1.1-9GS-2.63
# B2: VH 2.63 (VHH)
# VHH: EVQLVESGGGLVKPGGSLRLSCAASGFTFSDSSMTWMRQAPGKGLEWVSYISSGGGVKFYTDSVKGRFTISRDNAKNSLYLQMNSLRADDTAVYYCAREAPLRLGESPHDAFDISGQGTMVTVSS
# notes: Human VH single domain antibody against PD-1
# B3: VH1.1-6GS-VH1.1-6GS-VH2.63-His6 (bispecific antibody)
# chain: EVQLVESGGGVVRPGGSLRLSCSASGFTFDDYGMSWVRQAPGKGLEWVSGIHWNGGNSGYADSVKGRFTISRDNAKNSLYLQMNSLRAEDTALYYCARIPREDCSSASCYTDAIDFWGPGTMVTVSSGGGGSGGGGSGGGGSGGGGSGGGGSGGGGSEVQLVESGGGVVRPGGSLRLSCSASGFTFDDYGMSWVRQAPGKGLEWVSGIHWNGGNSGYADSVKGRFTISRDNAKNSLYLQMNSLRAEDTALYYCARIPREDCSSASCYTDAIDFWGPGTMVTVSSGGGGSGGGGSGGGGSGGGGSGGGGSGGGGSEVQLVESGGGLVKPGGSLRLSCAASGFTFSDSSMTWMRQAPGKGLEWVSYISSGGGVKFYTDSVKGRFTISRDNAKNSLYLQMNSLRADDTAVYYCAREAPLRLGESPHDAFDISGQGTMVTVSSAAAHHHHHH
# notes: Single-chain fusion of two anti-LAG-3 VH 1.1 and one anti-PD-1 VH 2.63; The entry includes AAA-His6; also called 1.1-6GS-1.1-6GS-2.63
# How the values were obtained:
# [1] = molecular target: T3, human PD-1 expressed on cells (human, UniProt Q15116 25-288); assay: cell-based or functional assay
# T3 sequence (Q15116 25-288 limits assumed): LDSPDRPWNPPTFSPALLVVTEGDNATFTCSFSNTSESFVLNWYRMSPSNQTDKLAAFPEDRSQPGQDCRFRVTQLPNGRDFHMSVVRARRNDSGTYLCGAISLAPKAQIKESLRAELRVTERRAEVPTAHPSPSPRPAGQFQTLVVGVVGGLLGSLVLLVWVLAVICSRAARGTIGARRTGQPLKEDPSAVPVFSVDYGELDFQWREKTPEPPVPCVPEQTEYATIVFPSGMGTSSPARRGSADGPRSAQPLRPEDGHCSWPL
# [2] = molecular target: T3, human PD-1 expressed on cells; assay: cell-based or functional assay; remark: listed apart in the source
# [3] = molecular target: T1, human LAG-3 expressed on cells; assay: cell-based or functional assay
# [4] = molecular target: T2, recombinant human LAG-3-Fc; assay: BLI (Octet); human LAG-3-Fc captured on protein G biosensors, 1:1 fit
# Protocol: Binding kinetics for multi-valent and bispecific VH were also measured in real-time bio-layer interferometer based biosensor Octet (ForteBio). […] All the binding studies were performed in HBS-ET Octet kinetics buffer. Biosensors were washed in Octet kinetics buffer in between different steps. […] The contact time for each of the association steps was 150 seconds and the dissociation step was 400 seconds. […] To compare the constructs, kinetic association (kₐ) and dissociation (kd) rate constants were determined by processing and fitting the data to a 1:1 binding model using ForteBio Analysis software.
# [5] = molecular target: T2, recombinant human LAG-3-Fc; assay: competition ELISA; LAG-3-Fc pre-incubated with VH, binding to coated LSECtin
# Text: (§1) The plate was blocked with 3% Marvel skimmed milk powder in PBS. […] Wash steps were done 3 times with PBS 0.05% Tween. Colour was developed using TMB and 0.5M sulphuric acid solution.
# [6] = molecular target: T2, recombinant human LAG-3-Fc; assay: competition ELISA; LAG-3-Fc pre-incubated with VH, binding to coated Galectin-3
# Text: as §1
# [7] = molecular target: T4, recombinant human PD-1 Fc chimera (human, UniProt Q15116 25-167); assay: HTRF binding; His-tagged construct with PD-1-Fc, anti-human-Fc cryptate and anti-His-D2
# T4 construct: Bought Fc chimera; also called human PD-1 (R&D systems cat no. 1086-PD); PD1 antigen
# T4 sequence (Q15116 25-167 limits assumed, change not shown): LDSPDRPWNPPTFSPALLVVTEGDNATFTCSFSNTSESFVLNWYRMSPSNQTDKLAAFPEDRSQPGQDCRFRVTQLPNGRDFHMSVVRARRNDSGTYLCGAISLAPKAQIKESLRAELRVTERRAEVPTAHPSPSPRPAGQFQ
# Protocol: Binding to PD-1 was measured by HTRF (homogeneous time resolved fluorescence). Serially diluted HIS-tagged constructs were prepared in assay buffer containing PBS, 0.1% BSA and 0.4M Potassium Fluoride. […] Time-resolved fluorescent emission at 620 nm and 665 nm was measured following excitation at 337 nm on the BMG PHERAstar plate reader. The HTRF ratio were calculated ((665 nm emission/620 nm emission)*10000) and the data corrected for (non-specific binding) to give the specific binding signal. EC50 were calculated from the titration curve (table 8 below).
# [8] = molecular target: T2, recombinant human LAG-3-Fc; assay: HTRF binding; His-tagged construct with LAG-3-Fc, anti-human-Fc cryptate and anti-His-D2
# [9] = molecular target: T5, LAG-3 and PD-1 on activated human T cells (human, UniProt P18627 23-525; Q15116 25-288); assay: flow cytometry (Intellicyte) on anti-CD3/anti-CD28 stimulated human CD4+ T cells; His-tagged VH detected with anti-HIS biotin and streptavidin AlexaFluor488
# T5 construct: also called huCD4+ T cells; huCD8+ T cells
# T5 sequence (Q15116 25-288 limits assumed, one chain of several): as the sequence (Q15116 25-288 limits assumed) above
# Protocol: (§2) FIG. 2. CD4+ T cells were stimulated with anti-CD3 and anti-CD28. Cells were stained with HIS tagged VH plus anti-HIS tag labelled with biotin and streptavidin AlexaFluor488. Cells were analysed using Intellicyte® cytometer.
# (§3) Binding onto human activated T cells was measured by cytometry. PBMC or magnetically isolated T cells were isolated from leukocytes cones and cells were incubated in 96 well plates coated with anti-CD3 (OKT3) at 5 μg/ml. Anti-CD28 (CD28.2) was added at 1 μg/ml in RPMI media and foetal bovine serum. After 72-96 hours, cells were harvested and stained using standard flow cytometry methods. […] Fluorescently labelled anti-CD4 and anti-CD8 were included in PBMC cultures and a live/dead dye. Stained cells were analysed using the IQue cytometer (Intellicyte). EC50 were calculated from the titration curve of median fluorescence of Humabody, gating on CD4+ or CD8+ cells if using mixed cells.
# [10] = molecular target: T3, human PD-1 expressed on cells; assay: FMAT inhibition of human Fc tagged PD-L1 binding to CHO human PD-1 cells
# Protocol: All reagents and serially diluted VH were prepared in FMAT assay buffer. […] Plates were incubated for 2 hours at room temperature then fluorescence measured in the FL2 (502 nm-537 nm) and FL5 (677-800 nm) channels on the Mirrorball plate reader (TTP) following excitation at 488 nm and 640 nm. Data was expressed as a % of the total binding control (i.e. % control) after subtraction of the background signal determined from the non-specific binding control wells.
# [11] = molecular target: T3, human PD-1 expressed on cells; assay: flow cytometry (Intellicyte) on anti-CD3/anti-CD28 stimulated human CD4+ T cells; His-tagged VH detected with anti-HIS biotin and streptavidin AlexaFluor488
# Protocol: as §2, §3
Binder,"potency in the PD-1:PD-L1 NFAT-luciferase reporter assay, fold lower than monoclonal antibodies [1] [fold]","EC50 (M), NFAT-Luciferase Reporter Gene assay (PD-1:PD-L1) [2] [M]","EC50 (M), NFAT-Luciferase Reporter Gene assay (LAG-3:MHCII) [3] [M]",Kd [4] [nM],koff [4] [s⁻¹],kon [4] [M⁻¹ s⁻¹],IC50 [5] [nM],IC50 [6] [nM],EC50 [7] [nM],EC50 [8] [nM],EC50 (read off the curve) [9] [nM],IC50 [10] [nM],EC50 (read off the curve) [11] [nM]
B1,> 30,3e-08,3.2e-09,0.397,0.000303,762000,54,38,0.6,0.78,~2,,
B2,,1.2e-08,,,,,,,,,,4.5,~2
B3,> 30,4.2e-08,3.3e-09,0.399,0.000305,764000,,,0.59,0.51,,,

# From patent US20210015937A1 (CRESCENDO BIOLOGICS, published 2021)
